Experiment [1] has as its target T1, APRIL (Acro Biosystems, Cat: APL-H52D1) (UniProt O75888 115-250, limits assumed).
T1 construct: also called ARPIL
T1 sequence (looked up): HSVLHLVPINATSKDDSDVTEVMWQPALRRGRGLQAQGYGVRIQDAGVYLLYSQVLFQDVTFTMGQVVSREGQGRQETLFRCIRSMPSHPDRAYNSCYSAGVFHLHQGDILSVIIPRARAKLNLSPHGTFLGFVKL
Briefly: ELISA, APRIL coated; reference telitacicept; range told of the 4 fusion proteins, upper end tied to B575703 by Table 5. The procedure:
(§1) The capabilities of TACI-BCMA fusion proteins (B575701, B575702, B575703, and B575704) to bind to BAFF and APRIL were assessed by ELISA as follows: BAFF (PeproTech, Cat: 310-13) or ARPIL (Acro Biosystems, Cat: APL-H52D1) was diluted to 1 μg/mL with PBS, and a 96-well plate (Costar, Cat: 3590) was coated with the dilution overnight at 4° C. The plate was washed with PBST and blocked with Blocking Buffer (PBST containing 1% BSA) at 37° C. for 1 h. The plate was tapped. The test antibodies were diluted with Blocking Buffer. Incubation was performed at 37° C. for 1.5 h. The plate was washed with PBST. An HRP-mouse anti-human Fc antibody (GenScript, Cat: A01854-200) was diluted with Blocking Buffer. Incubation was performed at 37° C. for 40 min. The plate was washed with PBST. 100 μL of TMB substrate solution (Biopanda, Cat: TMB-S-003) was added, and color development was performed at 37° C. for 3 min. 100 μL of ELISA stop solution (Solarbio, Cat: C1058) was added. OD450 was measured.
(§2) The capabilities of the 4 fusion proteins to bind to APRIL were all stronger than that of telitacicept, and their EC₅₀ values decreased to ¼ to ⅓ of that of telitacicept.
A general note: ELISA stands for enzyme-linked immunosorbent assay.

Experiment [2] has as its target T1, APRIL (Acro Biosystems, Cat: APL-H52D1). Briefly: ELISA, APRIL coated at 1 ug/mL, anti-human Fc-HRP, OD450. The procedure: as §1, §2
For experiment [3], the target named is T2, BAFF (PeproTech, Cat: 310-13) (UniProt Q9Y275 134-285). Briefly: ELISA, BAFF coated at 1 ug/mL, anti-human Fc-HRP, OD450. The procedure:
as §1
(§3) The capability of B575702 to bind to BAFF was consistent with that of B575704, and their EC₅₀ values decreased to ¼ of that of telitacicept. The capability of B575701 to bind to BAFF was consistent with that of B575703, and their EC₅₀ values decreased to ½ of that of telitacicept.

Experiment [4] concerns the target T2, BAFF (PeproTech, Cat: 310-13). Briefly: ELISA, BAFF coated; reference telitacicept. The procedure: as §1, §3
For experiment [5], the target named is T1, APRIL (Acro Biosystems, Cat: APL-H52D1). Briefly: ELISA, APRIL coated; reference telitacicept; range told of the 4 fusion proteins, lower end tied to B575702 by Table 5. The procedure: as §1, §2
For experiment [6], the target named is T3, recombinant human APRIL (R&D cat: 5860-AP-010/CF) (human, UniProt O75888 105-250, limits assumed).
T3 sequence (looked up): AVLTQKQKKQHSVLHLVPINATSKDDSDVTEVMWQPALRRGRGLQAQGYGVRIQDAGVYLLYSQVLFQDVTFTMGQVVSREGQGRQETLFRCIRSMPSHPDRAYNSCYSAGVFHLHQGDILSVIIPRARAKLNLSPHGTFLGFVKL
Briefly: cell-based or functional assay.

The target of experiment [7] is T4, recombinant human BAFF (R&D cat: 7537-BF-025/CF) (human, UniProt Q9Y275 134-285). Briefly: cell-based or functional assay.
Experiment [8] addresses T1, APRIL (Acro Biosystems, Cat: APL-H52D1). Briefly: ELISA, APRIL coated; reference telitacicept.
The target in experiment [9] is T4, recombinant human BAFF (R&D cat: …). Briefly: cell-based or functional assay. This is another data set of the same source.
In experiment [10] the target is T5, IFNAR1 (human, UniProt P17181 28-557).
T5 sequence (looked up): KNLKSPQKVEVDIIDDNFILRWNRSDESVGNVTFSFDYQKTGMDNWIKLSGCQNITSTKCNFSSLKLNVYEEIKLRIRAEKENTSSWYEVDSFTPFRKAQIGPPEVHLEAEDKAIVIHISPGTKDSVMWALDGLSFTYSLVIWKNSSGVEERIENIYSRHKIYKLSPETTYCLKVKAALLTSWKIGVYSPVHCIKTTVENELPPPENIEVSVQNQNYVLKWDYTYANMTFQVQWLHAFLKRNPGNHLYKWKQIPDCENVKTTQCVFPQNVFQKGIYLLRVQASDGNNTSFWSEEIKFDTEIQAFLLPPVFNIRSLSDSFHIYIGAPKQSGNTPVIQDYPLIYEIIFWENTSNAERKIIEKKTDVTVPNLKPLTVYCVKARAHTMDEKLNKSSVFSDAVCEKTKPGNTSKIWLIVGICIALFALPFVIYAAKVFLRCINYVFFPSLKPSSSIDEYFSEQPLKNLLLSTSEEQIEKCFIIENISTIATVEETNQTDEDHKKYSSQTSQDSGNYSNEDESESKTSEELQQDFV
Briefly: cell-based or functional assay.

Experiment [11] has as its target T1, APRIL (Acro Biosystems, Cat: APL-H52D1). Briefly: ELISA, APRIL coated at 1 ug/mL, anti-human Fc-HRP, OD450. Here is the method:
The capabilities of fusion proteins B606401, B637302, B746201, and B805201 to bind to BAFF and APRIL were assessed by ELISA as follows:
as §1, with “BAFF” for “The capabilities of TACI-BCMA fusion proteins (B575701, B575702, B575703, and B575704) to bind to BAFF and APRIL were assessed by ELISA as follows: BAFF”, “plate” for “plate (Costar, Cat: 3590)”
This is another data set of the same source.

Experiment [12] concerns the target T5, IFNAR1. Briefly: cell-based or functional assay. This is another data set of the same source.

Where two headings read alike, the source gives them in different places.

T4 sequence (Q9Y275 134-285 limits assumed): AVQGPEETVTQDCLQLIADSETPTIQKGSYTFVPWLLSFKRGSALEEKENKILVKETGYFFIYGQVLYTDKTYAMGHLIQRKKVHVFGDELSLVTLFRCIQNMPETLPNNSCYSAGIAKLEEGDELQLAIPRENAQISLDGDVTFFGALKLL
T2 sequence (Q9Y275 134-285 limits assumed): as above

B1: B575703 (Fc fusion)
chain: SRVDQEERFPQGLWTGVAMRSCPEEQYWDPLLGTCMSCKTICNHQSQRTCAAFCRSLSCRKEQGKFYDHLLRDCISCASICGQHPKQCAYFCENKLRSPVNLPPELMLQMAGQCSQNEYFDSLLHACIPCQLRCSSNTPPLTCQRYCNASVTNSVKGTNADKTHTCPPCPAPEAEGAPSVFLFPPKPKDTLMISRTPEVTCVVVDVSHEDPEVKFNWYVDGVEVHNAKTKPREEQYNSTYRVVSVLTVLHQDWLNGKEYKCKVSNKALPSSIEKTISKAKGQPREPQVYTLPPSRDELTKNQVSLTCLVKGFYPSDIAVEWESNGQPENNYKTTPPVLDSDGSFFLYSKLTVDKSRWQQGNVFSCSVMHEALHNHYTQKSLSLSPGK
notes: TACI-BCMA fusion protein; also called TACI-T2-BCMA-ECD-Fc
The EC50 is the concentration that produces a half-maximal response. For B1, the results for the “EC50 relative to telitacicept” value in experiment [1] and in experiment [4] were 0.333 fold and 0.5 fold, respectively. In addition, the EC50 was 264 pM in [2] and 352 pM in [3]. The Emax was 2.78 in experiment [2] and 2.43 nM (as printed) in [3].

B2: B575702 (Fc fusion)
chain: MLQMAGQCSQNEYFDSLLHACIPCQLRCSSNTPPLTCQRYCNASVTNSVKGTNALSCRKEQGKFYDHLLRDCISCASICGQHPKQCAYFCENKLRSPGDKTHTCPPCPAPEAEGAPSVFLFPPKPKDTLMISRTPEVTCVVVDVSHEDPEVKFNWYVDGVEVHNAKTKPREEQYNSTYRVVSVLTVLHQDWLNGKEYKCKVSNKALPSSIEKTISKAKGQPREPQVYTLPPSRDELTKNQVSLTCLVKGFYPSDIAVEWESNGQPENNYKTTPPVLDSDGSFFLYSKLTVDKSRWQQGNVFSCSVMHEALHNHYTQKSLSLSPGK
notes: TACI-BCMA fusion protein; also called BCMA-ECD-TACI-d2-Fc
B2: the EC50 in experiment [2] was found to be 171 pM; in experiment [3], 166 pM. Besides, the Emax in experiment [2] was 2.64; in experiment [3], 2.24 nM (as printed). For the same molecule, the “EC50 relative to telitacicept” value in experiment [5] and in experiment [4] was 0.25 fold in each case.

B3: B805201 (other)
heavy: EVQLVQSGAEVKKPGESLKISCKGSGYIFTNYWIAWVRQMPGKGLESMGIIYPGDSDIRYSPSFQGQVTISADKSITTAYLQWSSLKASDTAMYYCARHDIEGFDYWGRGTLVTVSSASTKGPSVFPLAPSSKSTSGGTAALGCLVKDYFPEPVTVSWNSGALTSGVHTFPAVLQSSGLYSLSSVVTVPSSSLGTQTYICNVNHKPSNTKVDKRVEPKSCDKTHTCPPCPAPEFEGGPSVFLFPPKPKDTLMISRTPEVTCVVVDVSHEDPEVKFNWYVDGVEVHNAKTKPREEQYNSTYRVVSVLTVLHQDWLNGKEYKCKVSNKALPASIEKTISKAKGQPREPQVYTLPPSRDELTKNQVSLTCLVKGFYPSDIAVEWESNGQPENNYKTTPPVLDSDGSFFLYSKLTVDKSRWQQGNVFSCSVMHEALHNHYTQKSLSLSPGKGGGGSGGGGSGGGGSSTSCREEQGEFYDHLLRDCISCASICGQHPKQCAAFCE
light: EIVLTQSPGTLSLSPGERATLSCRASQSVSSSFFAWYQQKPGQAPRLLIYGASSRATGIPDRLSGSGSGTDFTLTITRLEPEDFAVYYCQQYDSSAITFGQGTRLEIKRTVAAPSVFIFPPSDEQLKSGTASVVCLLNNFYPREAKVQWKVDNALQSGNSQESVTEQDSKDSTYSLSSTLTLSKADYEKHKVYACEVTHQGLSSPVTKSFNRGEC
notes: Fusion protein of anifrolumab and TACI-19-16 (C-terminus of the heavy chain); also called B80521
On to B3, for which, in [6], the “CD27+ CD38+ plasma cell count, mean value, BAFF + APRIL-induced (both ligands together), drug at 10 nM (IgG1: 2687)” value amounted to 434 cells; the “CD27+ CD38+ plasma cell count, mean value, BAFF + APRIL-induced (both ligands together), drug at 100 nM (IgG1: 2496)” value was found to be 426 cells; the “CD27+ CD38+ plasma cell count, mean value, BAFF + APRIL-induced (both ligands together), drug at 1000 nM (IgG1: 2279)” value was determined as 438 cells. Further, in experiment [7], the “CD27+ CD38+ plasma cell count, mean value, BAFF + APRIL-induced (both ligands together), drug at 100 nM (IgG1: 2496)” value turned out to be 426 cells and the “CD27+ CD38+ plasma cell count, mean value, BAFF + APRIL-induced (both ligands together), drug at 1000 nM (IgG1: 2279)” value turned out to be 438 cells. In addition, in experiment [8], the “EC50 relative to telitacicept” value turned out to be 0.333 fold. Moreover, in experiment [9], the “Flow cytometry proliferating B cell proportion (%), mean value, BAFF-induced, drug at 10 nM (IgG1: 40.15)” value is 20.4%; the “Flow cytometry proliferating B cell proportion (%), mean value, BAFF-induced, drug at 100 nM (IgG1: 40.60)” value was found to be 24.3%; the “Flow cytometry proliferating B cell proportion (%), mean value, BAFF-induced, drug at 1000 nM (IgG1: 33.97)” value was determined as 15%. The “IC50 (nM), inhibition of the activity of type I interferons (IFN-beta, HEK-Blue IFN-alpha/beta reporter cells)” value with IFNAR1 [10] was 1.63 nM. In experiment [11], this molecule displayed a concentration for a half-maximal effect (EC50) of 182 pM and an Emax of 2.85. Further, the “IC50, inhibition of IFN-alpha-induced in vitro differentiation of B cells into plasma cells (CD27+ CD38+)” value with IFNAR1 [12] is 6210 pM.

Values taken from US20260056186A1 (JIANGSU HENGRUI PHARMACEUTICALS, published 2026).
